Data from patent US20160367623A1, “AGONISTS OF GUANYLATE CYCLASE USEFUL FOR THE TREATMENT OF GASTROINTESTINAL DISORDERS, INFLAMMATION, CANCER AND OTHER DISORDERS” (priority 2015, published 2016).
Bridge positions count the residues as written; N and C are the ends. Ends that are not written are not given here.

System: patients with chronic idiopathic constipation (CIC)
Test: First phase 3 CIC trial: treatment emergent adverse events, safety

Substance: Asn^1-Asp^2-Glu^3-Cys^4-Glu^5-Leu^6-Cys^7-Val^8-Asn^9-Val^10-Ala^11-Cys^12-Thr^13-Gly^14-Cys^15-Leu^16 (NDECELCVNVACTGCL; disulfide 4-12, 7-15) [Plecanatide]
- Serious TEAE Infections and infestations, Reasonable Possibility: E events (3 mg (N = 474)): 0
- Serious TEAE Infections and infestations, Reasonable Possibility: N patients (3 mg (N = 474)): 0
- Serious TEAE Infections and infestations: E events (3 mg (N = 474)): 0
- Serious TEAE Infections and infestations: N patients (3 mg (N = 474)): 0
- Serious TEAE Infections and infestations, Reasonable Possibility: E events (6 mg (N = 457)): 0
- Serious TEAE Infections and infestations, Reasonable Possibility: N patients (6 mg (N = 457)): 0
- Serious TEAE Infections and infestations: % patients (6 mg (N = 457)): (0.4) %
- Serious TEAE Infections and infestations: E events (6 mg (N = 457)): 2
- Serious TEAE Infections and infestations: N patients (6 mg (N = 457)): 2
